Experiments:
[1] = biological target: AbHeR K216Q (Actinobacteria bacterium IMCC26103)
[2] = biological target: Actinobacteria bacterium IMCC26103 heliorhodopsin (AbHeR) wild type (Actinobacteria bacterium IMCC26103)
[3] = biological target: Actinobacteria bacterium IMCC26103 heliorhodopsin (AbHeR) wild type (Actinobacteria bacterium IMCC26103); remark: listed apart in the source
[4] = biological target: AbHeR D223N (Actinobacteria bacterium IMCC26103); assay: ITC; AbGS injected into purified AbHeR (WT or mutant) at 25°C, MicroCal ITC200; both in buffer SD (150 mM NaCl, 50 mM Tris-HCl pH 7.0, 0.02% DDM); in the absence of light
[5] = biological target: AbHeR E151Q (Actinobacteria bacterium IMCC26103); assay: as above
[6] = biological target: AbHeR K148Q (Actinobacteria bacterium IMCC26103); assay: as above
[7] = biological target: AbHeR K216Q (Actinobacteria bacterium IMCC26103); assay: as above
[8] = biological target: Actinobacteria bacterium IMCC26103 heliorhodopsin (AbHeR) wild type (Actinobacteria bacterium IMCC26103); assay: as above
[9] = biological target: Actinobacteria bacterium IMCC26103 heliorhodopsin (AbHeR) wild type (Actinobacteria bacterium IMCC26103); assay: ITC; purified AbGS with AbHeR in inverted membrane vesicles (IMV) of E. coli C43 (DE3), no detergent; text: IMVs injected into AbGS, legend: AbGS added to IMVs; in the absence of light
Glu105 = assay: UV-vis; conditions: Not stated for the titration. The purification buffer SD contains 150 mM NaCl., Not stated for the titration. The purified protein was in buffer SD: 150 mM NaCl, 50 mM Tris-HCl pH 7.0, 0.02% DDM. The protocol is referred to ref 8., detergent-solubilised, retinal-bound AbHeR WT. Light adaptation is not stated.

Sequence of Actinobacteria bacterium IMCC26103 heliorhodopsin (AbHeR) wild type (Actinobacteria bacterium IMCC26103) (main, as listed by the source): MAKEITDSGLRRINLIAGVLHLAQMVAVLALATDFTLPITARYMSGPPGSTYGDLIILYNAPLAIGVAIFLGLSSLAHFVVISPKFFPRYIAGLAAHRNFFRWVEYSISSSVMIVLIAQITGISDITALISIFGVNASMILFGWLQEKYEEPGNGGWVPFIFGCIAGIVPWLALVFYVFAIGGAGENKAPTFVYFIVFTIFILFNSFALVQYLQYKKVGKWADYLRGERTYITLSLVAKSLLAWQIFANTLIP

Row | kcat/Km of AbGS (Glu, Mn2+-supported biosynthetic reaction, 37°C) with AbHeR K216Q IMV, dark; AbGS alone 5.42 [1] [M⁻¹ s⁻¹] | kcat/Km of AbGS (Glu, Mn2+-supported biosynthetic reaction, 37°C) with AbHeR K216Q IMV, light (532 nm); AbGS alone 5.42 [1] [M⁻¹ s⁻¹] | kcat/Km of AbGS (Glu, Mn2+-supported biosynthetic reaction, 37°C) with AbHeR WT IMV, dark; AbGS alone 5.42 [2] [M⁻¹ s⁻¹] | kcat/Km of AbGS (Glu, Mn2+-supported biosynthetic reaction, 37°C) with AbHeR WT IMV, light (532 nm); AbGS alone 5.42 [2] [M⁻¹ s⁻¹] | amount of product (Pi) of the AbGS biosynthetic reaction with AbHeR WT IMV at 150 min, in the absence of light, against AbHeR K216Q IMV [3] [times] | amount of product (Pi) of the AbGS biosynthetic reaction with AbHeR WT IMV at 150 min, in the presence of light against the absence of light [3] [times] | amount of product (Pi) of the AbGS biosynthetic reaction with AbHeR WT IMV at 150 min, in the presence of light, against AbHeR K216Q IMV [3] [times] | Kd [4] [µM] | dH [4] [kcal/mol] | Kd [5] [µM] | dH [5] [kcal/mol] | Kd [6] [µM] | dH [6] [kcal/mol] | Kd [7] [µM] | Kd [8] [µM] | dH [8] [kcal/mol] | Kd [9] [µM] | Substance | pKa (Glu105)
1 | 5.45 | 6.91 | 8.01 | 12.2 | 1.09 | 1.1 | 1.2 | 44 | 1.14 | 30 | 2.36 | 137 | 5.31 | 3680 | 100 | 2.07 | 6.06 | Actinobacteria bacterium IMCC26103 glutamine synthetase (AbGS) (enzyme) | –
2 | – | – | – | – | – | – | – | – | – | – | – | – | – | – | – | – | – | Heliorhodopsin AbHeR (Actinobacteria bacterium IMCC26103) | 2.84 (± 1.07)

Source: article PMC9529153
